Results as given in US20200270301A1 (UBIPROTEIN, published 2020).

Molecular target: T1, HA-ubiquitin (expressed from pMT123-HA-ubiquitin) (UniProt P0CG48 1-76)
T1 construct: Co-expressed in HEK 293T cells and detected with anti-HA after anti-myc immunoprecipitation; It attaches covalently (isopeptide bond, polyubiquitin chains); P0CG48 is the polyubiquitin-C precursor; a single ubiquitin unit is 76 residues; not shown: HA tag of the pMT123-HA-ubiquitin plasmid
Experiment: covalent ubiquitination in HEK 293T cells: anti-myc IP, anti-HA Western blot

B1: myc-EGF WT (expressed from pcDNA3-myc-EGF WT) (ligand)
chain: NSDSECPLSHDGYCLHDGVCMYIEALDKYACNCVVGYIGERCQYRDLKWWELR
modifications: not fully specified
notes: Expressed inside HEK 293T cells; also called human EGF; not shown: myc tag of the pcDNA3-myc vector
binding result: binds
